# Test: soluble on expression in E. coli; label from the status in PepcDB or PDB records
row,Sequence,soluble on expression in E. coli
1,MGKEKVHINIVVIGHVDSGKSTTTGHLIYKCGGIDKRTIEKFEKEAQEMGKGSFKYAWVLDKLKAERERGITIDIALWKFETAKYYITIIDAPGHRDFIKNMITGTSQADCAVLVVACGTGEFEAGISKNGQTREHALLAQTLGVKQLIVACNKMDSTEPPFSEARFTEITNEVSGFIKKIGYNPKAVPFVPISGFNGDNMLEVSSNMPWFKGWAVERKEGNASGKTLLEALDSIIPPQRPTDRPLRLPLQDVYKIGGIGTVPVGRVETGIIKPGMVVTFAPQNVTTEVKSVEMHHESLPEAVPGDNVGFNVKNVSVKDIRRGSVCSDSKQDPAKEARTFHAQVIIMNHPGQISNGYTPVLDCHTAHIACKFNELKEKVDRRTGKKVEDFPKFLKSGDAGIVELIPTKPLCVESFTDYAPLGRFAVRDMRQTVAVGVIKSVEKSDGSSGKVTKSAQKAAPKKK,not soluble
2,MGKGDPKKPRGKMSSYAFFVQTCREEHKKKHPDASVNFSEFSKKCSERWKTMSAKEKGKFEDMAKADKARYEREMKTYIPPKGETKKKFKDPNAPKRPPSAFFLFCSEYRPKIKGEHPGLSIGDVAKKLGEMWNNTAADDKQPYEKKAAKLKEKYEKDIAAYRAKGKPDAAKKGVVKAEKSKKKKEEEEDEEDEEDEEEEEDEEDEDEEEDDDDE,soluble
3,MGKKPVVIGVAGGSGSGKTSVARAIYDHFGDHSILVLEQDFYYKDQSHLPFEERLKTNYDHPLAFDNDLLIEHIHKLLRYEPIDKPVYDYTLHTRSSDVIRVEPKDVIIVEGILVLEDERLRNLMDIKVYVDTDPDIRIIRRLIRDMKERGRTFDSVIEQYLSVVRPMHNQFVEPTKRYADVIIPEGGQNVVAIDLMVAKIRTVLEQKAVL,not soluble
4,MGKLAADQLTLSYDSTVIIDGVDLKIEEGKITALIGANGCGKSTILKSLARLMAPKSGTVLLEGKDIHRQPSKEVAKKLAILPQSPQAPEGLTVEELCYFGRHPHKKLLSKHTQEDHDMVEWALEATGMIELKDRTLDALSGGQRQRAWISMALAQGTDLLLLDEPTTYLDISHQIEVLELLKKLNRDHGRTVVMVLHDLNQAAQYADYLISVLDGKIYNAGTPEDVFTQPFFREVFGLECCIMRSPIDQKPMCLPTGLCPKLRAK,not soluble
5,MGKMNHQDELPLAKVSEVDEAKRQWLQGMRHPVDTVTEPEPAEILAEFIRQHSAAGQLVARAVFLSPPYLVAEEELSVLLESIKQNGDYADIACLTGSKDDYYYSTQAMSENYAAMSLQVVEQDICRAIAHAVRFECQTYPRPYKVAMLMQAPYYFQEAQIEAAIAAMDVAPEYADIRQVESSTAVLYLFSERFMTYGKAYGLCEWFEVEQFQNP,soluble
6,MGKNFDEAALLKSLEGVPDAEKVQKLIKKLAESEKQNAELKIKVLDYDKVVKVKDLTEKKLERNNQILLRTEEAKSKLEELCRGLQKANHQTREEACAKMKKLEVERGLAVEQLKVTLKDIEKTMAEGRSKSDSLAEDNKKLSEKFSEIGHQYEEKMKVIDQQIQKKEKYWEEYGKTKDLEIKLLTAKLESASIQVKKSGMEKDELAKIMLEETARVGGALKTEKALREQVQEYSAKYSELTSCLSKSNEAFDKFKDEISRVNKKCMQVEKEGLSYKKKSDEANKKVLVLTMTNQEYAEKIATSDKKIQMLENLCRALRKGEQEPVTTAETTEAN,not soluble
7,MGKTNDWLDFDQLAEEKVRDALKPPSMYKVILVNDDYTPMEFVIDVLQKFFSYDVERATQLMLAVHYQGKAICGVFTAEVAETKVAMVNKYARENEHPLLCTLEKAGA,soluble
8,MGKVYIVGAGPGDPDLITVKGLKCIEKADVILYDRLVNKELLSYAKPEADLIYCGKLPNYHTMKQETINTFLIKYAKKGKIVTRLKGGDPFVFGRGGEEAEALAKQGVPFEIVPGISAGIAAPAYAGIPVTHRDASASFAIVTGHRKEDAAEEVKWGNLAKGVETLAVYMGVSNLPYICEQLMKHGKDKSTPAAIIERGTTSMQRTVVGTLGTIVDVAKKEQIQNPSMIVIGEVVRFREKIHWFEKQTESTYQVSGVL,not soluble
9,MGKYQPSFQTKKGWTEVICGPMFSGKTEKLLHKIKRWKIAKISVVIFKPIIDTRQTNIVKSRNGEYDQAITINSPFEIYDHLVDKNYQIVAIDEAQFFSNEIIEVVTTLNEIGTNVIISGLDTDFRAEPFGCIPQLLAIADVVNKLDAICNVCGSLAQRTQRLVNKNTNDNLVLIGDAEAYEARCKLHHSFLTKKHVTVKTKNFKEQVQGKTQLEHHHHHH,not soluble
10,MGLEKVVLTGLGAGLIAVAARGQNPLATALKIEQNDEGETVVRDAVTIGKPAEQLYAVWRDLPGLPLLMTHLRSVEVLDDKRSRWTVEAPAPLGTVSWEAELTADEPGKRIAWRSLPGARIENSGEVLFRPAPGARGTEVVVRLTYRPPGGSAGAVIARMFNQEPSQQLRDDLMRFKREQELGLEHHHHHH,soluble
11,MGLELEWMPIEDLKLPSNVIEIIKKRGIKKLNPPQTEAVKKGLLEGNRLLLTSPTGSGKTLIAEMGIISFLLKNGGKAIYVTPLRALTNEKYLTFKDWELIGFKVAMTSGDYDTDDAWLKNYDIIITTYEKLDSLWRHRPEWLNEVNYFVLDELHYLNDPERGPVVESVTIRAKRRNLLALSATISNYKQIAKWLGAEPVATNWRPVPLIEGVIYPERKKKEYNVIFKDNTTKKVHGDDAIIAYTLDSLSKNGQVLVFRNSRKMAESTALKIANYMNFVSLDENALSEILKQLDDIEEGGSDEKELLKSLISKGVAYHHAGLSKALRDLIEEGFRQRKIKVIVATPTLAAGVNLPARTVIIGDIYRFNKKIAGYYDEIPIMEYKQMSGRAGRPGFDQIGESIVVVRDKEDVDRVFKKYVLSDVEPIESKLGSERAFYTFLLGILSAEGNLSEKQLENFAYESLLAKQLVDVYFDRAIRWLLEHSFIKEEGNTFALTNFGKRVADLYINPFTADIIRKGLEGHKASCELAYLHLLAFTPDGPLVSVGRNEEEELIELLEDLDCELLIEEPYEEDEYSLYINALKVALIMKDWMDEVDEDTILSKYNIGSGDLRNMVETMDWLTYSAYHLSRELKLNEHADKLRILNLRVRDGIKEELLELVQISGVGRKRARLLYNNGIKELGDVVMNPDKVKNLLGQKLGEKVVQEAARLLNRFH,soluble
12,MGLELFLDLVSQPSRAVYIFAKKNGIPLELRTVDLVKGQHKSKEFLQINSLGKLPTLKDGDFILTESSAILIYLSCKYQTPDHWYPSDLQARARVHEYLGWHADCIRGTFGIPLWVQVLGPLIGVQVPEEKVERNRTAMDQALQWLEDKFLGDRPFLAGQQVTLADLMALEELMQPVALGYELFEGRPRLAAWRGRVEAFLGAELCQEAHSIILSILEQAAKKTLPTPSPEAYQAMLLRIARIP,soluble
13,MGLERFNGVRVDDAERALLTCCRSLRWARRVADHRPYPDLDALLAAADEAAYDLAPADLAEALAGESLTLLPDDAYSVAHTALSAAHAAYESRFGHVFVICLDNAPPGEALDQVLAGIRSRLTNDREEERVLAAEELRRLARGRLARLVRDFSPRPALQRTPLEHHHHHH,not soluble
14,MGLHYFLDHKKEDLYKSVQDVYKSDDRPWVVGFSGGKDSTVVVQIIFYALASMSKNELTKPVYIISSDTMVENPKILEHIDTQLLKMKKAANELELPIHVEKVMPNIKNTFWVNLIGRGYPAPRQKFRWCTDRLKIDPANNFILNKVSEFGETVVVLGVRKSESSTRAQVMNTHKVEGKILRRHTKLPNSYVYAPIEDFSLDDVWTYLMQVPNPWGADNADLLALYQDSQGECPLVIDNSTPSCGNSRFGCWVCTVVQEDKSLKGFIESGDEWLTPLLKFRNWLLENRDKEDYREKKRANGSVYLIGDEDNKRLGLGPYTLEHRKEILRKLLETEKQLQHPHQPKYELITIEELKEIRKIWFEKGDWEDSVLAIYEEVYGHRPNWDIEESKFLESEDIKLLKKLCHEEEVEFELVQKLVNLEFQHYGYKHRYGILKDINRILNEEWLHFDQLQQGDNYAD,not soluble
15,MGLNDNKAGMEGLDKEKINKIIMEATKGSRFYGNELKKEKQVNQRIENMMQQKAQITSQQLRKAQLQVDRFAMELEQSRNLSNTIVHIDMDAFYAAVEMRDNPELKDKPIAVGSMSMLSTSNYHARRFGVRAAMPGFIAKRLCPQLIIVPPNFDKYRAVSKEVKEILADYDPNFMAMSLDEAYLNITKHLEERQNWPEDKRRYFIKMGSSVENDNPGKEVNKLSEHERSISPLLFEESPSDVQPPGDPFQVNFEEQNNPQILQNSVVFGTSAQEVVKEIRFRIEQKTTLTASAGIAPNTMLAKVCSDKNKPNGQYQILPNRQAVMDFIKDLPIRKVSGIGKVTEKMLKALGIITCTELYQQRALLSLLFSETSWHYFLHISLGLGSTHLTRDGERKSMSVERTFSEINKAEEQYSLCQELCSELAQDLQKERLKGRTVTIKLKNVNFEVKTRASTVSSVVSTAEEIFAIAKELLKTEIDADFPHPLRLRLMGVRISSFPNEEDRKHQQ,soluble
16,MGNELIVSVQNRIQEMQHGEGLRLPTGYSVGNALNSAYLILSDNSKGKSLLEKCHPTSVSKALLNMAIQGLSPAKNQCYFVPYGDQCTLMRSYFGSVSILERLSNVKKVHAEVIFEGDEFEIGSEDGRTVVTNFKPSFLNRDNPIIGAFAWVEQTDGIKVYTIMTKKEIYKSWSKAKTKNVQNDYPQEMAKRTVLSRAAKMFINSSSDNDLLVKAINETTEDEYDNNQPRKDITPNPPNIEKLEKSIFNQDENKKIAQDMIDSIDLNQADKDLQEELNIEFPDPSKNYLATGEVNGDVENEDGPYPF,not soluble
17,MGNYLNPDNSKFQRAVNSDIYVDKTGLIKYTNRVINTMQAYVCVSRPRRFGKSMAADMLTAYYSRGCDSRELFAGLEIAKDENFGGYLNKYDTVFLNVQEFLSRSSDVKELIARIKQRVIRELTRQYPDVELFDSTDLAETMQDIYAESKCPFVLIIDEWDCIFREFKNDKEAQEKYLDFLRDLIKDKSYIHLAYMTGILPIKKYGTHSALNMFDEFSMIDPGPLASYVGFTESEVEKLCGEYQMDIDEIRNWYDGYSFEEVPSVYSPKSVISCMRLGRLGNYWNQTETFEALQLYIDMNFEGLRDDILSMLAGEEVPVNTGSFTNDMATFRTEDDVLTLLIHLGYLGYRYATKTVFIPNGEIRAEFVNAVSVSDWGEVSNALKNSADTLQAIWQGREKQVAEGIRQAHFETSHIQYNDENALSYTISLALYAARNFYTVHRELSGGKGFADLVFIPRKRFMDKPALVVELKWDKDVAGAITQIREKEYCRSLEEYHGKLLLVGINYDKKTKEHSCKIEEYRK,not soluble
18,MGPEGALPKASEATVCANNSKVSSPGEKVVLWTREADRVILTMCQEQGAQPHTFSVISQQLGNKTPVEVSHRFRELMQLFHTACEASSEDEDDATSTSNADQLSDHGDLLSEEELDE,soluble
19,MGPLVKEKYEEVEQIPLKKPHIVSLIGGFGYREPIFRKVLTTAALDSGINYTLISGPSLDPSKFKEIPKNVQILRFVGDTFPYIRSSDAVIAPGGHSTMMEALSFGTPILSFPDEGHSEQENNAAVIEEEGYGRMLSYSTPPEVILECIREVLEDKKYRDKVKRLQRLASELDGLEHHHHHH,soluble
20,MGQDHIRYDILAQDALRGVIRKVLGEVAATGRLPGDHHFFITFLTGAPGVRISQHLKSKYAEQMTIVIQHQFWDMKVTETGFEIGLSFSDTPEKLVIPYNAIRGFYDPSVNFELEFDVPLAKEEEMEEAEITAYPVSHEAKPASETPKSGEEKKEGSVVSLDAFRKKQLEHHHHHH,soluble
21,MGQKRMNKSNKLVIINRAIPGGGKTSLIKQIEELAKSLGHSISVHSTDEYFIQTDEEGIRHYVVDKKKLNEYHQNNQEAFKQALENRIDIVVCDNTNFESWQSKPYTDMAREFGYKILLIDFKNRHLETPMDYGWDVAQCIKKPRGIAKHYDYDFYLERVLVEPQDYEKQNRELSLKALEFLKYNFDFDVIFYSFGEQLMPILTRMLVSVSKSHRKRLENYGKDIKTLEHHHHHHLEHHHHHHLEHHHHHHLEHHHHHHLEHHHHHHLEHHHHHHLEHHHHHH,not soluble
